Molecular target: endogenous Xenopus type 1 inositol 1,4,5-trisphosphate receptor (Xenopus laevis (endogenous in oocytes)) (UniProt Q91908)
Assay: co-IP

recombinant rat type 3 inositol 1,4,5-trisphosphate receptor, Q63269 1-2670, sequence (Q63269 whole entry): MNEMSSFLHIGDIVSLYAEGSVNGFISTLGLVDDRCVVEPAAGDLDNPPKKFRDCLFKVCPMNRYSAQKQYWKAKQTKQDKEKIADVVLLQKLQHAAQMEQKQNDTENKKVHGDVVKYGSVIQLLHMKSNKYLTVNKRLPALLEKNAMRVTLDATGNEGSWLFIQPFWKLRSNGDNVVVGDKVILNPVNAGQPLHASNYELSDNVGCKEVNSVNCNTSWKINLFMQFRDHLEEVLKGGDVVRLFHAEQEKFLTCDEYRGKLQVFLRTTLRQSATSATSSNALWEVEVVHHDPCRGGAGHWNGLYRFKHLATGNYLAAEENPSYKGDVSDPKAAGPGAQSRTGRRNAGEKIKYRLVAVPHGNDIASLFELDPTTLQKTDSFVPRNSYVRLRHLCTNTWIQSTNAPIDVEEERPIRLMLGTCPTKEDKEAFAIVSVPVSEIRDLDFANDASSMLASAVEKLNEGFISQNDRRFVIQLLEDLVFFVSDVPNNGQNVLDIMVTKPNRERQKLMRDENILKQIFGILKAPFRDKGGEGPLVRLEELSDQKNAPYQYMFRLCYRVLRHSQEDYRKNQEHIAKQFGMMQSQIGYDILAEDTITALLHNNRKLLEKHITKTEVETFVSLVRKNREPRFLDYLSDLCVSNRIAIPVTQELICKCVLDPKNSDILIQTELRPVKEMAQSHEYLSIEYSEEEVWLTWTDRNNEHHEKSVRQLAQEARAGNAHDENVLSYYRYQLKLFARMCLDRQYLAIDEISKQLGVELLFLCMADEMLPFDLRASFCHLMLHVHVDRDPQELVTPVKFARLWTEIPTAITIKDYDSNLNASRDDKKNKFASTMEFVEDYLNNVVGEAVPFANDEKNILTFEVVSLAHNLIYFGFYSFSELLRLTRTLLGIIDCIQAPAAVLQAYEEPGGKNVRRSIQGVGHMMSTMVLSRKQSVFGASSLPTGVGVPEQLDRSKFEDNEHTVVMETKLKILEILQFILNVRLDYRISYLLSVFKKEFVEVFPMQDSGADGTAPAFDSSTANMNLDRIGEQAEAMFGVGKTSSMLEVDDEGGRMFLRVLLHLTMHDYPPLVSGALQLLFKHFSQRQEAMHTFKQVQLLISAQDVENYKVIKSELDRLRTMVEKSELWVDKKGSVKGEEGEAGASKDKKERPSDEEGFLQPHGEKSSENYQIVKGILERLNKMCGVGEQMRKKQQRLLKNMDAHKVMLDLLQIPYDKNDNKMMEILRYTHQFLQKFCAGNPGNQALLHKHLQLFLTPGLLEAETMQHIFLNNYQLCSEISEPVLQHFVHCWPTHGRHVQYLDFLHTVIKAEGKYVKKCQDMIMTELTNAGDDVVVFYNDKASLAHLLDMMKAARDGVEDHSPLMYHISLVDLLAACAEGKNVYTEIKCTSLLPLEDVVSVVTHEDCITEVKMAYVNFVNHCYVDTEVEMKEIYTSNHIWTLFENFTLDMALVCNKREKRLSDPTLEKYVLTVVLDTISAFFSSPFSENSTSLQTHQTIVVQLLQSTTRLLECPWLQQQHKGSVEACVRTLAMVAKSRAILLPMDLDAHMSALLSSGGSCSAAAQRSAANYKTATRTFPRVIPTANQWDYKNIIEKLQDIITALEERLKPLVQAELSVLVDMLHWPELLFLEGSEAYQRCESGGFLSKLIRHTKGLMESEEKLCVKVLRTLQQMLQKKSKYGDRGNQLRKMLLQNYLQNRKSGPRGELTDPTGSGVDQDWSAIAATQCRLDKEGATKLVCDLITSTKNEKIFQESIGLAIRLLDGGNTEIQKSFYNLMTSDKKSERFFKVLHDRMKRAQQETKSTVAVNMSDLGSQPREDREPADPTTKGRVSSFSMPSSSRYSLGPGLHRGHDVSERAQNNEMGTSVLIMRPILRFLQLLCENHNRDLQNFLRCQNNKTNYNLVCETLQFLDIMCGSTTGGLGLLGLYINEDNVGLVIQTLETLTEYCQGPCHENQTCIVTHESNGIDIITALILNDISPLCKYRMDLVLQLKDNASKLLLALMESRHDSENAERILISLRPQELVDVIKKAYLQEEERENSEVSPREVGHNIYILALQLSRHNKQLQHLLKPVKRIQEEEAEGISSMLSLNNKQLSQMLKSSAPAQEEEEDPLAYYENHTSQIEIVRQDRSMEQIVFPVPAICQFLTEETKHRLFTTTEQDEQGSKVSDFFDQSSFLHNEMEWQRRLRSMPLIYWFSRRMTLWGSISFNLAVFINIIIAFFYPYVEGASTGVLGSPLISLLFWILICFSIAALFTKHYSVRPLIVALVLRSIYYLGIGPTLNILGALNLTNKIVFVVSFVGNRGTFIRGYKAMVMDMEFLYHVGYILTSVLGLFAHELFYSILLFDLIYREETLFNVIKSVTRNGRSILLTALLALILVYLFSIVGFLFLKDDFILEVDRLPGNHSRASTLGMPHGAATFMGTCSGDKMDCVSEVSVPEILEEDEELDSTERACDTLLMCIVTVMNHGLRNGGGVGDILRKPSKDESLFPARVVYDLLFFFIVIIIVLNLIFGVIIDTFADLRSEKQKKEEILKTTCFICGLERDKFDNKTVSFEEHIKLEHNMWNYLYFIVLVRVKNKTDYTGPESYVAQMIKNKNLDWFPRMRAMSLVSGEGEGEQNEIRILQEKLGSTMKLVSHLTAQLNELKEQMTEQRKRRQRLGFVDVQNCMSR

percent of expressed r-InsP3R-3 in heteroligomers with X-InsP3R-1: 7 to 10%
Substance: recombinant rat type 3 inositol 1,4,5-trisphosphate receptor, Q63269 1-2670
